Target: the molecule itself
Assay: SEC

B1: DepH from Chromobacterium violaceum No. 968 (enzyme)
chain: not shown
stoichiometry N: 2

Source: article PMC4894451 (Scientific Reports, 2014)
